Assay results taken from US6323395A, “Nucleotide sequences of maize and soybean β-Ketoacyl-Acyl Carrier Protein Synthase II and their use in the regulation of fatty acid content of oil” (Dow AgroSciences LLC, priority 1998, dated 2001).
Like-named read-outs stand apart in the source and are kept apart here.

Experiments:
[1] = tested on: soybean β-Ketoacyl-Acyl Carrier Protein Synthase II (KAS II), purified from seed; assay: KAS II activity assay, Km from double reciprocal plots; assay type: biochemical; conditions: cerulenin-Sepharose fraction, substrate not named, condensing activity towards C16:0-ACP
Protocol: (§1) Malonyl CoA-ACP transacylase, hereafter MTA, was purified from E. coli as described by Alberts et al. (1969) Methods in Enzymology, 14:50-53. Transacylase reactions were performed in 100 μL of reaction mixture [100 mM KH2 PO4, pH 6.5, 100 μM ACP, 100 μM malonyl CoA, 10 nCi [2-^4 C] malonyl CoA (43.1 Ci/mol), and 2 mM dithiothreitol (DTT). ACP was incubated with an equal volume of 20 mM DTT for 15 min before being added to the reaction mixture. Reactions were started by adding 10 μL of either enzyme alone or enzyme that had been incubated for 15 min with an inhibitor and allowed to proceed for 5 min at 23° C. Reactions, which were terminated by adding 400 μL of ice cold 5% (v/v) perchloric acid, were then placed on ice for 20 min before being centrifuged for 5 min at 14,000×g. Pellets were washed 3× with 5% perchloric acid before being resuspended in 500 µL KH2 PO4 buffer and counted using scintillation. KAS II activity was measured by modifying the method of Garwin et al. (1980) J. Biological Chem. 255:11949-11956. […] The toluene layer (300 μL) was added to 5 mL Aquasol (NEN, Boston, Mass.) and incorporated [2-^4 ] malonyl CoA was determined by scintillation counting. […]

[2] = tested on: maize β-Ketoacyl-Acyl Carrier Protein Synthase II (KAS II), purified from seed; assay: as above; assay type: biochemical; conditions: cerulenin-Sepharose fraction, substrate not named, condensing activity towards C16:0-ACP
Protocol: as §1

[3] = target: C16:0-ACP (palmitoyl-acyl carrier protein) made from bought ACP (Escherichia coli (strain K12)) (UniProt P0A6A8)
[4] = tested on: KAS II (soybean and maize KAS II expressed in E. coli); assay: Synthase assay with cerulenin, condensation of [2-14C]malonyl-CoA with acyl-ACP; assay type: biochemical; conditions: cerulenin 50 μM
Protocol: Malonyl CoA-ACP transacylase, hereafter MTA, was purified from E. coli as described by Alberts et al. (1969) Methods in Enzymology, 14:50-53. Transacylase reactions were performed in 100 μL of reaction mixture [100 mM KH2 PO4, pH 6.5, 100 μM ACP, 100 μM malonyl CoA, 10 nCi [2-^4 C] malonyl CoA (43.1 Ci/mol), and 2 mM dithiothreitol (DTT). ACP was incubated with an equal volume of 20 mM DTT for 15 min before being added to the reaction mixture. Reactions were started by adding 10 μL of either enzyme alone or enzyme that had been incubated for 15 min with an inhibitor and allowed to proceed for 5 min at 23° C. […] Pellets were washed 3× with 5% perchloric acid before being resuspended in 500 µL KH2 PO4 buffer and counted using scintillation. KAS II activity was measured by modifying the method of Garwin et al. (1980) J. Biological Chem. 255:11949-11956. […] The toluene layer (300 μL) was added to 5 mL Aquasol (NEN, Boston, Mass.) and incorporated [2-^4 ] malonyl CoA was determined by scintillation counting.
For enzymatic analysis of E coli expressed soybean and maize KAS II, substrates were made as follows: ACP (Sigma Chemical Co.) was further purified by three cycles of precipitation at pH 4.0 using 10% (v/v) acetic acid followed by resolubilization in 50 mM Tris-HCl, pH 8.0. […] Incorporated malonyl-CoA was extracted into toluene prior to quantitating by liquid scintillation counting. […]

KAS I = assay: as above; assay type: biochemical; conditions: cerulenin at concentrations of 5 μM or greater
[5] = target: C16:0-ACP (palmitoyl-acyl carrier protein) made from bought ACP (Escherichia coli (strain K12)) (UniProt P0A6A8); remark: listed apart in the source
Target sequence in this assay (P0A6A8 2-78 limits assumed): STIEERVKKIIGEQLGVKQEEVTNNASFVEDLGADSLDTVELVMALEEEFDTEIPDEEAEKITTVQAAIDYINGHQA

[6] = target: C10:0-ACP (decanoic acid acyl-acyl carrier protein) made from bought ACP (Escherichia coli (strain K12)) (UniProt P0A6A8)
[7] = target: the molecule itself; assay: gel filtration on Superdex 200: native molecular weight 82,000±5,000 against a subunit size of 46 kDa by SDS-PAGE
Protocol: The molecular mass of native KAS II was determined by gel filtration using a Superdex 200 column (Pharmacia LKB Biotechnology, Inc.) equilibrated in 25 mM KH_2PO_4 (pH7.0). The column was calibrated using protein standards (BioRAD, Hercules, Calif.), which included blue dextran, thyroglobin (M_r, 670,000), bovine gamma globulin (Mr_r, 158,000), chicken ovalbumin (M_r, 44,000), equine myoglobin (M_r, 17,000), vitamin B-12 (M_r, 1,350).

[8] = target: C16:0-ACP (palmitoyl-acyl carrier protein) made from bought ACP (Escherichia coli (strain K12)) (UniProt P0A6A8); remark: listed apart in the source
Target sequence in this assay (P0A6A8 2-78 limits assumed): as above

[9] = target: C10:0-ACP (decanoic acid acyl-acyl carrier protein) made from bought ACP (Escherichia coli (strain K12)) (UniProt P0A6A8); remark: listed apart in the source

Chain of C10:0-ACP (decanoic acid acyl-acyl carrier protein) made from bought ACP (Escherichia coli (strain K12)) (P0A6A8 2-78 limits assumed): as above

palmitoyl-ACP [C16:0-ACP] gave a Km [1] of 18 µM and a Km [2] of 14.1 µM.

Molecule “soybean β-Ketoacyl-Acyl Carrier Protein Synthase II purified from soybean seed (enzyme)” has a Km [3] of 18 µM.

For `C/C=C/C/C=C/CCC(=O)[C@H]1O[C@H]1C(N)=O` [cerulenin], the “inhibition of KAS II” value [4] was “about 50%” and the “inhibition of KAS I activity” value (KAS I) was “completely inhibits”.

B1: maize β-Ketoacyl-Acyl Carrier Protein Synthase II purified from maize seed (enzyme)
chain: MAVALQAERSVIEKKKPDIKQRRVVVTGMGVVTPLGHDPDVFYNNLLDGVSGISEIERFDCSNFPTRIAGEIKSFSTDGWVAPKLAKRMDKFMLYLITAGKKALENGGLTEELRNELDKTRCGVLIGSAMGGMKVFNDAIEALRVSYKKMNPFCVPFATTNMGSAILAMDLGWMGPNYSISTACATSNFCILNAANHIRRGEADVMLCGGSDAPLIPIGLGGFVACRALSQRNSDPTKASRPWDMGRDGFVMGEGAGVLVLEELEHAKERGATIYAEFLGGSFTCDAYHMTEPHPEGRGIALCIEKALADAGVAREEINYVNAHATSTQAGDLKEYEAIVRCFRQNPQLRVNSTKSMTGHLIGAAGGIEAVASIQAIRTGWVHPNLNLENPEDTVDVGVLVGSQKERCEVKVALSNSFGFGGHNSSILFAPFK
With B1 the Km [3] was 14.1 µM.

B2: maize KAS II expressed in E. coli from pDAB388 (enzyme)
chain: B1 chain
Molecule B2 has a synthase activity: condensation of [2-14C]malonyl-CoA with C16:0-ACP to C18:0-ACP (counts per minute per minute) [5] of 909 and a synthase activity: condensation of [2-14C]malonyl-CoA with C10:0-ACP to C12:0-ACP (counts per minute per minute) [6] of 734.

B3: first soybean KAS II expressed in E. coli from pDAB393 (enzyme)
chain: MAVALQPTQEVTTIKKPPTKQRRVVVTGLGVVTPLGHEPDIFYNNLLDGVSGISEIETFDCAEYPTRIAGEIKSFSTDGWVAPKLSKRMDKFMLYMLTAGKKALVDGGITDDVMDELNKDKCGVLIGSAMGGMKVFNDAIEALRISYKKMNPFCVPFATTNMGSAMLAMDLGWMGPNYSISTACATSNFCILNAANHIIRGEADVMLCGGSDAAIIPIGLGGFVACRALSQRNTDPTKASRPWDINRDGFVMGEGAGVLLLEELEHAKKRGATIYAEFLGGSFTCDAYHVTEPRPDGAGVILCIEKALAQSGVSKEDVNYINAHATSTPAGDLKEYQALMHCFGQNPKLRVNSTKSMIGHLLGAAGAVEAVATIQAIRTGWVHPNINLEKPDNGVDAKVLVGSKKERLDVKAALSNSFGFGGHNSSIIFAPYK
With B3 the binding result [7] was “binds”, the synthase activity: condensation of [2-14C]malonyl-CoA with C16:0-ACP to C18:0-ACP (counts per minute per minute) [8] was 1930 and the synthase activity: condensation of [2-14C]malonyl-CoA with C10:0-ACP to C12:0-ACP (counts per minute per minute) [9] was 207.

B4: second soybean KAS II expressed in E. coli from pDAB394 (enzyme)
chain: MAVALQPTQEITTIKKPPTKQRRVVVTGLGVVTPLGHEPDIFYNNLLDGASGISEIETFDCAEYPTRIAGEIKSFSTDGWVAPKLSKRMDKFMLYMLTAGKKALVDGGITDDVMDELNKEKCGVLIGSAMGGMKVFNDAIEALRISYKKMKPFCVPFATTNMGSAMLAMDLGWMGPNYSISTACATSNFCILNAANHIIRGEADVMLCGGSDAAIIPIGLGGFVACRALSQRNTDPTKASRPWDINRDGFVMGEGAGVLLLEELEHAKERGATIYAEFLGGSFTCDAYHVTEPRPDGAGVILCIEKALAQSGVSKEDVNYINAHATSTPAGDLKEYQALMHCFGQNPELRVNSTKSMIGHLLGAAGGVAAVATIQAIRTGWVHPNINLENPDNGVDAKVLVGSKKERLDVKAALSNSFGFGGHNSSIIFAPY
Molecule B4 has a synthase activity: condensation of [2-14C]malonyl-CoA with C16:0-ACP to C18:0-ACP (counts per minute per minute) [5] of 2160 and a synthase activity: condensation of [2-14C]malonyl-CoA with C10:0-ACP to C12:0-ACP (counts per minute per minute) [6] of 890.
